In patent US20230183661A1, “BICOMPATIBLE PEPTIDEBIOCOMPATIBLE PEPTIDES FOR INHIBITION OF AGGREGATION OF B-AMYLOID PROTEIN” (Catholic University Industry Academic Cooperation Foundation, priority 2017, published 2023):
Entries after “also recorded” stand apart in the source; their conditions may differ.

Experiments:
[1] = system: nerve cells (N2a); experiment: Cytotoxicity by nuclear morphology through IFA; format: cell-based, mouse; settings: overexpressed in N2a, FIG. 5
Description: (§1) Twenty-four hours after the transfection, N2a cells were incubated in a 4% paraformaldehyde fixation solution for 15 minutes. The cells were washed with PBS three times, and incubated in a 50 mM NH4Cl/PBS quenching solution for 10 minutes.
(§2) Subsequently, the cells were washed with PBS three times, and incubated in a 0.1% Triton X-100/PBS solution for 5 minutes. The cells were then treated and incubated with 2% FBS/blocking buffer at room temperature for 1 hour. The cells were then treated and incubated with FLAG antibodies diluted 1/100 at room temperature for 2 hours, washed with PBS three times, and then treated and incubated with a goat anti-mouse Alexa Fluor®-red 594 dye.
(§3) The sample was washed with PBS three times, and mounted on a glass slide using a FluoroGuard Antifade reagent (Bio-Rad Laboratories, Inc.). A fluorescent image was obtained using a confocal laser scanning microscope (Zeiss LSM 510 Meta, Carl Zeiss AG), and processed using Adobe® Photoshop®, and a fluorescence signal intensity was measured using a ZEN 2009 Light Edition software program.
To confirm cytotoxicity of the peptide (NABi) of the present invention, the peptide of the present invention was overexpressed in nerve cells (N2a), and a nuclear morphology was observed through IFA. […]

[2] = biological target: T1, Aβ (Homo sapiens, UniProt P05067); experiment: Co-IP assay of SOD1 truncated peptides co-overexpressed with Aβ in nerve cells (N2a); format: binding; design: Aβ, and generally a peptide consisting of 36 to 43 amino acids; expressed in transfected cells; host or cells: N2a (murine neuroblastoma); settings: for Acting with β-amyloid / Binding strength with β-amyloid: Co-IP; for Acting with β-amyloid: peptide and Aβ overexpressed in N2a; for Binding strength with β-amyloid: relative score without scale; for Binding to Aβ: FIG. 3, Co-IP; for Binding strength to Aβ: FIG. 3
Description: The transfected HEK293T, H4 and N2a cells were lysed in a NETN buffer and incubated on ice for 1 hour. This solution includes 100 mM of NaCl, 1 mM of EDTA, 20 mM of Tris-HCl (pH 8.0), 0.5% (v/v) NP-40 and protease inhibitors. Among the protease inhibitors, aprotinin and leupeptin have a concentration of 2 μg/ml, and PMSF has a concentration of 0.1 mM.
1 mg of a protein extract and 1 μg of a primary antibody were mixed and cultured at 4° C. for 12 hours. The mixture was mixed with Protein G Sepharose 4 Fast Flow (GE Healthcare), and cultured at 4° C. for 1 hour, yielding a binding immune complex through centrifugation. A sample buffer was added to the precipitated Sepharose and boiled, and the buffer includes 44 mM Tris-HCl (pH 6.8), 2% SDS, 144 mM β-mercaptoethanol, 10% (v/v) glycerol, and 0.004% (v/v) bromophenol blue.
The immunoprecipitated sample was subjected to 12% SDS-polyacrylamide gel electrophoresis (SDS-PAGE) to transfer proteins to a membrane, and then immunoblotting with a FLAG antibody, a SOD1 antibody and a GFP antibody.
To identify a β-strand exposed at a protein surface and inhibiting Aβ protein aggregate formation through interactions with Aβ, all types of truncated fragments of SOD1 consisting of eight β-strands (β1 to β8) were systemically designed and constructed (FIG. 2). FIG. 2 schematically illustrates SOD1 and the β1-to-β8 structure of SOD1, and the sequences of Peptides 1 to 6.
To determine a determinant binding to Aβ, various peptides from which a specific β-strand was removed were constructed. Peptide 2 was prepared by removing a β-turn linked to the β2 strand in Peptide 1. Peptides 1 to 6 and Aβ were overexpressed in nerve cells (N2a), and then a Co-IP assay was performed.

[3] = system: nerve cells (N2a); experiment: Self-aggregate formation of peptide overexpressed in nerve cells (N2a), immunofluorescence; format: cell-based, mouse
Description: as §1, §2, §3
To identify whether a self-aggregate of the peptide (NABi) of the present invention was formed, the peptide of the present invention was overexpressed in nerve cells (N2a), and then measured by an immunofluorescence method.

[4] = system: nerve cells (N2a); experiment: Cytotoxicity through IB of neural cell death-associated proteins; format: cell-based, mouse; settings: peptide overexpressed in N2a, FIG. 6
Description: (§4) Cells were lysed in an RIPA buffer and incubated at 4° C. for 30 minutes. The RIPA buffer includes 2 μg/mL of a composition including 0.15 M NaCl, 0.5% (v/v) sodium-deoxycholate, 0.1% (v/v) SDS, 0.05 M Tris-HCl (pH 8.0), 1% (v/v) NP-40, aprotinin and leupeptin, 1 mM PMSF and a phosphatase inhibitor.
(§5) The phosphatase inhibitor included 1 mM Na3VO4 and 1 mM NaF. A protein concentration was measured by a Bradford assay (Bio-Rad Laboratories). The sample was separated in a 12% or 15% SDS-polyacrylamide gel.
(§6) The cells were lysed in a lysis buffer (Catalog No. 9803, Cell Signaling Technology), and the sample was separated in a 13% blue gel according to the manufacturer's protocol (MitoSciences Inc.).
(§7) Proteins were transferred to Protran® nitrocellulose membranes (Sigma-Aldrich Co. LLC), and then the membranes were incubated in a 5% non-fat dried milk/TBST solution at room temperature for 1 hour. […]
(§8) The membranes were incubated with a primary antibody at room temperature for 1 hour, and incubated again with a secondary antibody for 1 hour. The antigen-antibody complex was detected using an enhanced chemiluminescence kit (Santa Cruz Biotechnology, Inc.). […]
For the control, normal nerve cells (N2a) were treated with STS to induce apoptotic cell death (apoptosis positive control), and then the expression and activity of a neural cell death-associated protein were evaluated.

[5] = biological target: T2, Aβ protein aggregate (Homo sapiens, UniProt P05067); experiment: Aβ aggregation inhibition in nerve cells through IFA; format: cell-based; settings: peptide and Aβ expressed, FIG. 7; Aβ-only control about 50% cells with aggregates
T2 construct: Aβ, and generally a peptide consisting of 36 to 43 amino acids; expressed in transfected cells; host or cells: N2a (murine neuroblastoma)
Description: as §1, §2, §3
To confirm the inhibition of Aβ aggregation by the peptide (NABi) of the present invention, the peptide of the present invention and Aβ were expressed in nerve cells, and then an Aβ protein aggregate was quantitatively analyzed through IFA. […]

[6] = biological target: T1, Aβ; experiment: Aβ aggregate formation under aggregate formation conditions, measured through IB; format: biochemical; settings: FIG. 8
Description: 9. Formation of β-Amyloid Aggregate A monomer recombinant Aβ42 (Catalog No. 03-111, Invitrogen™ Co.) peptide was added to 1,1,1,3,3,3-hexafluoro-2-propanol (HFIP, Sigma-Aldrich Co. LLC) and stored in a −80° C. freezer, and the HFIP was evaporated and removed immediately before use. For the Aβ aggregate formation, 20 μM of Aβ peptides were dissolved in a 0.1 M HEPES/TBS buffer or 0.01 M HCl/TBS buffer and incubated at 37° C. for 14 days. The TBS buffer included 50 mM Tris-HCl and 150 mM NaCl.
To confirm the inhibition of Aβ aggregation by the peptide (NABi) of the present invention, the peptide (NABi) of the present invention and Aβ were cultured under i) a 0.1 M HEPES/TBS (pH 7.4) condition or ii) a 0.01 M HCl/TBS condition, and then the degree of Aβ aggregate formation was measured through IB.
Under an Aβ aggregate formation condition, for example, i) a 0.1 M HEPES/TBS (pH 7.4) condition or ii) a 0.01 M HCl/TBS condition, the control was subjected to IB in order to measure a degree of Aβ aggregate formation.

[7] = system: nerve cells (H4 cells); experiment: Neural cell death through PI staining; format: cell-based; settings: peptide and Aβ overexpressed in H4 cells, FIG. 10
Text: Approximately 40 to 50% of the H4 cells were positive for a neuron marker (neuron-specific enolase; NSE). Since the H4 cells were sensitive to an Aβ aggregate, and neural cell death resulted from the Aβ aggregate, they were used in neural cell death analysis.
For the control, Aβ was overexpressed in nerve cells (H4 cells).

[8] = system: nerve cells (H4 cells); experiment: Neural cell death through nuclear morphology; format: cell-based; settings: peptide and Aβ overexpressed in H4 cells, versus Aβ-only control, FIG. 11
Text: For the control, Aβ was overexpressed in the nerve cells (H4 cells).

[9] = system: nerve cells (H4 cells); experiment: Neural cell death through AnnexinV staining at different peptide expression levels; format: cell-based; settings: all expression levels of the peptide, H4 cells with Aβ, FIG. 12
Text: An expression level of the peptide of the present invention was differentially adjusted.

[10] = system: nerve cells (H4 cells); experiment: Neural cell death-associated proteins through IB at different peptide expression levels; format: cell-based; settings: peptide and Aβ expressed in H4 cells, FIG. 13 lanes 6 to 8
Description: as §4, §5, §6, §7, §8
For the control, after Aβ was expressed in nerve cells (H4 cells), the expression and activity of a neural cell death-associated protein were measured through IB.

[11] = biological target: T1, Aβ; experiment: FRAP assay of Aβ mobility in nerve cells (N2a); format: cell-based; design: Aβ, and generally a peptide consisting of 36 to 43 amino acids; expressed in transfected cells; host or cells: N2a (murine neuroblastoma); settings: FIG. 9
Description: Fluorescence recovery after photobleaching (FRAP) is a technique for detecting the mobility of a fluorescence-tagged molecule in living cells. N2a cells were cultured in a 35 mm cell culture dish at a density of 5×10^4 cells/dish, and after 12 hours, a target plasmid was transfected into the cells.
Thirty six hours after the transfection, whether an aggregate was formed was analyzed by a laser confocal microscope. A specific area (white box part) was photobleached 15 times using 594 nm laser, and then fluorescence recovery in the photobleached part was measured at an interval of 3 seconds.
To confirm the inhibition of Aβ aggregation by the peptide (NABi) of the present invention, the peptide of the present invention and Aβ were overexpressed in nerve cells (N2a), a predetermined region was repeatedly exposed to a high intensity laser beam through a FRAP assay. Afterward, an Aβ protein was removed from the laser beam-exposed region, and then fluorescence recovery according to migration of peripheral Aβ proteins was measured in real time.
For the control, after Aβ was overexpressed in nerve cells (N2a), fluorescence recovery according to migration of peripheral Aβ proteins was measured in real time through a FRAP assay.

## G93A: SOD1 mutant in which the 93th amino acid glycine was changed to alanine; aggregation and apoptosis comparator [Peptide G93A, reference compound]
[1]
  Cells with condensed and fragmented nuclei: approximately 50%

## Peptide 3: truncated fragment of SOD1 consisting of β-strands β4 to β6, 75 aa
[2]
  Acting with β-amyloid: Not acting
  Binding strength with β-amyloid: 0
  Binding to Aβ: did not bind to Aβ

## Peptide 4: truncated fragment of SOD1, β1-to-β3 sequence, 39 aa (SEQ ID NO: 2) (ATKAVCVLKGDGPVQGIINFEQKESNGPVKVWGSIKGLT; peptide 2)
[2]
  Binding strength with β-amyloid: 1
  Binding strength to Aβ: bound to Aβ at a similar strength

## Peptide 5: Natural Amyloid β Binder and Amyloid β aggregation inhibitor; β1-to-β5 strand sequence of SOD1, 90 aa (SEQ ID NO: 3 or 4)
[3]
  Self-aggregate formation: did not form a self-aggregate
[1]; compared with normal N2a control
  Nuclear morphology: normal nuclear morphology
[4]
  Truncated forms of PARP1, Lamin A/C: not detected either
[4]; STS as apoptosis positive control
  Active caspase-3, active caspase-8, active caspase-9 and γ-H2AX: not detected
[5]
  Nerve cells in which no Aβ protein aggregate was observed: ≥ 80%
[6]; i) 0.1 M HEPES/TBS (pH 7.4)
  Reduction of Aβ aggregates compared to the control: 1/10
[6]; ii) 0.01 M HCl/TBS
  Reduction of Aβ aggregates compared to the control: ⅓
[7]
  Reduction of the number of PI-stained apoptotic cells compared to the control: approximately ⅓
[8]
  Morphological changes in nuclei (chromosomal condensation and fragmentation): less morphological changes in nuclei
[9]
  Neural cell death by AnnexinV staining: neural cell death was inhibited
[10]
  Detection of truncated caspase-3, truncated PARP and truncated Lamin A/C: greatly reduced
[2]
  Binding strength with β-amyloid: 1
  Binding strength to Aβ: bound to Aβ at a similar strength; also recorded: strongly bound to Aβ
  Binding to Aβ: bound to Aβ
[11]; within 20 seconds
  Recovery of fluorescence removed by photobleaching: 50%
[11]; within 90 seconds
  Recovery of fluorescence removed by photobleaching: 75%

## Peptide 6: truncated fragment of SOD1 consisting of β-strands β5 to β8, 74 aa
[2]
  Acting with β-amyloid: Not acting
  Binding strength with β-amyloid: 0
  Binding to Aβ: did not bind to Aβ
